Source: article PMC12375970 (2025)

Biological target: importin-alpha2 (mImpα2) (Mus musculus, UniProt P52293)
Assay: MST

B1: TAF8 NLS NLS (peptide)
chain: PVKKPKIRRKKSLS
Kd: ~1 µM
